Measured values from PMC10348809, “CsMYB15 positively regulates Cs4CL2-mediated lignin biosynthesis during juice sac granulation in navel orange”.

T1: MBP-CsMYB15 (Citrus sinensis Osbeck ('Lane Late' …, UniProt A0A7G7YA61 1-267))
T1 sequence: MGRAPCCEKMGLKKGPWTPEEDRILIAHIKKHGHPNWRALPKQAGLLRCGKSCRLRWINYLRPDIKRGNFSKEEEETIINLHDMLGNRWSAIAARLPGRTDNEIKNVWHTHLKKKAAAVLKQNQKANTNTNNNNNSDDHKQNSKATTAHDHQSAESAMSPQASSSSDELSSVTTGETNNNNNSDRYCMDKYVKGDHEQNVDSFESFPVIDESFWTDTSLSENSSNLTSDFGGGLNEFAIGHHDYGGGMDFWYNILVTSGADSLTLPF


Tests used:
MBP-CsMYB15 [1] = molecular target: T1, MBP-CsMYB15; experiment: EMSA; not stated (EMSA as in Shi et al., 2020 with minor modifications); conditions: protein: recombinant; tags: MBP; label: 5' FAM on S18; blunt
MBP-CsMYB15 [2] = molecular target: T1, MBP-CsMYB15; experiment: competition; dose-dependent competition against FAM probe N1; not stated (EMSA as in Shi et al., 2020 with minor modifications); conditions: protein: recombinant; tags: MBP; blunt

Row | Binder | binding result (MBP-CsMYB15 [1]) | binding result (MBP-CsMYB15 [2])
1 | proCs4CL2 probe (dsDNA) DNA 1: GCAAAAATAACTCACCATCCCCTTTGCTTCCC DNA 2: GGGAAGCAAAGGGGATGGTGAGTTATTTTTGC | binds | 
2 | proCs4CL2 unlabeled competitor (dsDNA) DNA 1: GCAAAAATAACTCACCATCCCCTTTGCTTCCC DNA 2: GGGAAGCAAAGGGGATGGTGAGTTATTTTTGC |  | binds
